In one assay the target is T1, activin C (UniProt P55103 237-352).
T1 sequence (looked up): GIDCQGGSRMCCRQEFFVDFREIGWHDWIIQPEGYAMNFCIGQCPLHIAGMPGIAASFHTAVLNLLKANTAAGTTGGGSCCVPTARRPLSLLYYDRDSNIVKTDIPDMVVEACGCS
In words: SPR (Biacore), Fc fusion captured by anti-Fc antibody.

The target of the next assay is T2, activin AC (UniProt P08476 311-426; P55103 237-352).
T2 construct: Heterodimer of beta A and beta C subunits
T2 sequence (looked up) 1: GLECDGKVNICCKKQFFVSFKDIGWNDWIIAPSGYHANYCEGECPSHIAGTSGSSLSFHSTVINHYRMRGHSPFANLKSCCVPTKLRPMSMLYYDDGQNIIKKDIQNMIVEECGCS
T2 sequence (looked up) 2: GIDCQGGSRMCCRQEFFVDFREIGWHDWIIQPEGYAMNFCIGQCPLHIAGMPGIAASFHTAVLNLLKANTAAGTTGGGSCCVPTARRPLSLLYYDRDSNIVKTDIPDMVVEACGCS
The description is as above.

The target of assay [1] is T3, BMP10 (UniProt O95393 317-424).
T3 sequence (looked up): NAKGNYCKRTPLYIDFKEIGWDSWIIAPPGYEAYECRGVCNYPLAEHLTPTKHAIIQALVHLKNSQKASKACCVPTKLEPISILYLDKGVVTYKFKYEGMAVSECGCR
The description is as above.

Assay [2] concerns the target T4, GDF8 (UniProt O14793 267-375).
T4 construct: also called myostatin
T4 sequence (looked up): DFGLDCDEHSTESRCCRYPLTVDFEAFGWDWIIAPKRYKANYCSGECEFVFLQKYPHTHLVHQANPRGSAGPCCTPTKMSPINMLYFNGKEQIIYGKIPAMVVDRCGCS
The description is as above.

In a further assay the target is T5, BMP5 (UniProt P22003 317-454, limits assumed).
T5 sequence (looked up): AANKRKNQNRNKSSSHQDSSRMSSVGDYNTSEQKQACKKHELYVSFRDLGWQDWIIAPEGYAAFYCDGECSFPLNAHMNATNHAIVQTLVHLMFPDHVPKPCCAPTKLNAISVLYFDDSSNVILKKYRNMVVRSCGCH
Described as above.

The target in assay [3] is T6, GDF3 (UniProt Q9NR23 251-364).
T6 sequence (looked up): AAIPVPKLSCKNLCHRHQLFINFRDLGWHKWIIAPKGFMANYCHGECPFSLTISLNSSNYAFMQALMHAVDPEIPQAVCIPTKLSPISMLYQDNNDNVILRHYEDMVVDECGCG
Described as above.

Assay [4] addresses T7, activin B (UniProt P09529 293-407).
T7 sequence (looked up): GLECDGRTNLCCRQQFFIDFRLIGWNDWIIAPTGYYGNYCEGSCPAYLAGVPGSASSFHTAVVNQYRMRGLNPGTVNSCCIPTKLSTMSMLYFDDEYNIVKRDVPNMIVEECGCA
The assay is described as above.

Assay [5] addresses T8, BMP6 (UniProt P22004 375-513, limits assumed).
T8 sequence (looked up): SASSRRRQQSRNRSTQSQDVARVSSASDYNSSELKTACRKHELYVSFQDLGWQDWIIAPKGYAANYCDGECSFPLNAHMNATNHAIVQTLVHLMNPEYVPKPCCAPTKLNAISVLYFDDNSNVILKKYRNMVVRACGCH
The assay is described as above.

For assay [6], the target named is T9, BMP9 (UniProt Q9UK05 320-429).
T9 construct: also called GDF2
T9 sequence (looked up): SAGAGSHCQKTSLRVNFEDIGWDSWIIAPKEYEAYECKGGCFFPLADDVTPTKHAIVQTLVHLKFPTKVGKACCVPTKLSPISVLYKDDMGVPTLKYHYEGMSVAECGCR
Described as above.

The target of assay [7] is T10, activin A (UniProt P08476 311-426).
T10 sequence (looked up): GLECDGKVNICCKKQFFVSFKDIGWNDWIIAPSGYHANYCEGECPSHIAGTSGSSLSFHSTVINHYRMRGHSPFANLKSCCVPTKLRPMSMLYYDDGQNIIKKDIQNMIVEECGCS
Described as above.

The target of assay [8] is T11, GDF11 (UniProt O95390 299-407).
T11 construct: also called BMP11
T11 sequence (looked up): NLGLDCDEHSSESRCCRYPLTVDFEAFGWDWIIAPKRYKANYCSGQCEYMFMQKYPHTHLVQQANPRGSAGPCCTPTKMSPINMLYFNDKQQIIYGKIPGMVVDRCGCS
The description is as above.

Assay [9] concerns the target T3, BMP10. In words: SPR (Biacore), Fc fusion captured by anti-Fc antibody, 37 C. (In general: In SPR one partner is held on a chip, and binding of the other changes the refractive index at the surface.)
For assay [10], the target named is T4, GDF8. The assay is described as above.
For assay [11], the target named is T6, GDF3. The assay is described as above.
The target of assay [12] is T7, activin B. The assay is described as above.
The target of assay [13] is T8, BMP6. The assay is described as above.
In assay [14] the target is T9, BMP9. The assay is described as above.
Assay [15] addresses T10, activin A. The description is as above.
In assay [16] the target is T11, GDF11. Described as above.
The target of assay [17] is T3, BMP10. The assay is described as above. This is another data set of the same source.
Assay [18] has as its target T10, activin A. The description is as above. The source holds these as a separate data set.
In assay [19] the target is T11, GDF11. In words: not described.

In general, Kd refers to the constant that tells how readily two partners part at equilibrium. In general, koff refers to the first-order rate constant of dissociation. Usually kon stands for the rate constant with which the complex forms.

B1: ActRIIB-Fc:ALK7-Fc heterodimer (Fc fusion)
chain 1: GRGEAETRECIYYNANWELERTNQSGLERCEGEQDKRLHCYASWRNSSGTIELVKKGCWLDDFNCYDRQECVATEENPQVYFCCCEGNFCNERFTHLPEAGGPEVTYEPPPTAPT
chain 2: ELSPGLKCVCLLCDSSNFTCQTEGACWASVMLTNGKEQVIKSCVSLPELNAQVFCHSSNNVTKTECCFTDFCNNITLHLPTASPNAPKLGPME
In the case of B1, the Kd came out at 6.9 nM with activin C; 0.22 nM with activin AC; 0.19 nM with BMP10 [1]; 0.27 nM with GDF8 [2]; 57 nM with BMP5; 4.5 nM with GDF3 [3]. In addition, the Kd with activin B [4] was 0.017 nM; with BMP6 [5], 5.3 nM; in the assay with BMP9 [6] it was > 1.4 nM; with activin A [7], 0.043 nM; in the assay with GDF11 [8], 0.008 nM. In addition, the koff in the assay with activin C was 0.0024 s⁻¹; with activin AC, 0.00057 s⁻¹; with BMP10 [1], 0.0028 s⁻¹; in the assay with GDF8 [2], 0.001 s⁻¹; with BMP5, 0.0085 s⁻¹; with GDF3 [3], 0.01 s⁻¹. Besides, the koff amounted to 0.0002 s⁻¹ with activin B [4], 0.0063 s⁻¹ in the assay with BMP6 [5], 0.0019 s⁻¹ with activin A [7] and 0.00075 s⁻¹ in the assay with GDF11 [8]. In addition, the kon is 350000 M⁻¹ s⁻¹ with activin C; 2.6e+06 M⁻¹ s⁻¹ with activin AC; 1.5e+07 M⁻¹ s⁻¹ in the assay with BMP10 [1]; 3.7e+06 M⁻¹ s⁻¹ with GDF8 [2]; 150000 M⁻¹ s⁻¹ with BMP5; 2.3e+06 M⁻¹ s⁻¹ with GDF3 [3]. The kon in the assay with activin B [4] stood at 1.2e+07 M⁻¹ s⁻¹; in the assay with BMP6 [5], 1.2e+06 M⁻¹ s⁻¹; in the assay with activin A [7], 4.4e+07 M⁻¹ s⁻¹; with GDF11 [8] it was 9.5e+07 M⁻¹ s⁻¹.

B2: ActRIIB-Fc:ActRIIB(L79E)-Fc heterodimer (Fc fusion)
chain 1: GRGEAETRECIYYNANWELERTNQSGLERCEGEQDKRLHCYASWRNSSGTIELVKKGCWLDDFNCYDRQECVATEENPQVYFCCCEGNFCNERFTHLPEAGGPEVTYEPPPTAPT
chain 2: GRGEAETRECIYYNANWELERTNQSGLERCEGEQDKRLHCYASWRNSSGTIELVKKGCWEDDFNCYDRQECVATEENPQVYFCCCEGNFCNERFTHLPEAGGPEVTYEPPPTAPT
As for B2, the equilibrium dissociation constant (Kd) was 0.042 nM with BMP10 [9]; 0.15 nM with GDF8 [10]; 10 nM in the assay with GDF3 [11]; 0.025 nM in the assay with activin B [12]; 0.056 nM with BMP6 [13]; > 2.8 nM with BMP9 [14]. Besides, the equilibrium dissociation constant (Kd) was 0.17 nM with activin A [15] and 0.009 nM with GDF11 [16]. Moreover, the koff with BMP10 [9] is 0.002 s⁻¹; with GDF8 [10] it was 0.0005 s⁻¹; with GDF3 [11], 0.0059 s⁻¹; with activin B [12] it was 0.00021 s⁻¹; in the assay with BMP6 [13] it was 0.018 s⁻¹; with activin A [15], 0.0015 s⁻¹. Moreover, the off-rate constant (koff) with GDF11 [16] worked out at 0.00036 s⁻¹. The kon with BMP10 [9] amounted to 4.8e+07 M⁻¹ s⁻¹; in the assay with GDF8 [10] it was 3.4e+06 M⁻¹ s⁻¹; in the assay with GDF3 [11], 580000 M⁻¹ s⁻¹; with activin B [12] it was 8.3e+06 M⁻¹ s⁻¹; with BMP6 [13] it was 3.3e+08 M⁻¹ s⁻¹; with activin A [15] it was 8.8e+06 M⁻¹ s⁻¹. Also, the kon with GDF11 [16] stood at 4e+07 M⁻¹ s⁻¹. In addition, the “fold faster off-rate than ActRIIB-Fc homodimer” value with BMP10 [17] and with activin A [18] was ~10 fold throughout.

B3: ActRIIB-Fc with C-terminal tail (A64 background) (Fc fusion)
chain: SGRGEAETRECIYYNANWELERTNQSGLERCEGEQDKRLHCYASWANSSGTIELVKKGCWLDDFNCYDRQECVATEENPQVYFCCCEGNFCNERFTHLPEAGGPEVTYEPPPTAPTGGGTHTCPPCPAPELLGGPSVFLFPPKPKDTLMISRTPEVTCVVVDVSHEDPEVKFNWYVDGVEVHNAKTKPREEQYNSTYRVVSVLTVLHQDWLNGKEYKCKVSNKALPVPIEKTISKAKGQPREPQVYTLPPSREEMTKNQVSLTCLVKGFYPSDIAVEWESNGQPENNYKTTPPVLDSDGSFFLYSKLTVDKSRWQQGNVFSCSVMHEALHNHYTQKSLSLSPGK
notes: Alanine at position 64; also called preferred version of ActRIIB-Fc
For the molecule B3, the binding result in the assay with GDF11 [19] was “binds”.

These data come from patent US20240197902A1 (ACCELERON PHARMA, published 2024).
